Assay results: patent US20260092084A1, “PEPTIDE AND ASSEMBLY OR COMPOSITION CONTAINING SAID PEPTIDE” (priority 2022, published 2026)
Square brackets hold non-standard residues; d marks the D form. Ends that are not written are not given here. * marks the point of attachment. 5(6)‑FAM = 5(6)-carboxyfluorescein; pS = N[C@@H](COP(=O)(O)O)C(=O)O; Tfa = O=C(C(F)(F)F)*

Assays:
[1] = Average particle diameter of peptide assembly by dynamic light scattering; format: physicochemical; settings: 10 mM HEPES, 150 mM NaCl buffer (pH 7); 40 mM DMSO stock diluted 100-fold; stood overnight; 25° C.; main peak of scattering intensity
Experimental: 5 mg of each of the peptides of Examples 1-1 to 1-5 and Reference Examples 1-1 to 1-8 was dissolved in dimethyl sulfoxide (DMSO) to provide a stock solution (40 mM). To a 10 mM HEPES and 150 mM NaCl buffer (pH 7) under stirring with a micromixer (E-36, Taitec Corporation), 4 μL of the stock solution was dropped to be diluted 100-fold. The dilution was vortexed and then left to stand still at room temperature overnight. Then, 200 μL of the dilution was used as a measurement sample and measurement of particle diameter distribution was performed at 25° C. by dynamic light scattering with Litesizer 500 (Anton Paar GmBH). The results determined by defining the main peak of a scattering intensity as the average particle diameter of an assembly are shown in Table 3. Provided that, when a polydispersity index was more than 20%, the main peak was determined with further reference to a volume-based particle diameter distribution.

[2] = Binding affinity to first target (HA): adsorption isotherm on hydroxyapatite beads; settings: hydroxyapatite magnetic beads; 10 mM HEPES (pH 7.4)/1% DMSO; 4° C., 4 hours; tryptophan fluorescence; read-out: Dissociation constant (KD)
Experimental: The peptides of Examples 1-2 and 1-5 and a HA-binding peptide A (DSpSEEKW: SEQ ID NO: 17) forming the HA binding site of each of the peptides were each evaluated for peptide binding affinity to hydroxyapatite beads (1 μm BcMag™ Hydroxyapatite Magnetic Particles (Bioclone Inc., catalog No. FO-101)). Specifically, the beads were weighed and suspended in a 100 mM sodium phosphate buffer (pH 7.4)/20% ethanol so as to have 30 mg/mL. 267 μL of the suspension of the beads ultrasonicated to be dispersed homogenously was dispensed in a 1.5 mL tube. The beads were fixed with a magnetic stand (Takara Bio Inc., Magnetic Stand (6 tubes), product code: 5328), followed by removal of a supernatant, and then 100 μL of a peptide solution was added. The peptide solution was prepared by diluting the 100 mM stock solution (in DMSO) to 40 μM with 10 mM HEPES (pH 7.4)/1% DMSO and further serially diluting the solution from 4-fold to 5-fold. After stirring at 4° C. for 4 hours, the tube was stood in the magnetic stand for fixing the beads, and a supernatant was recovered. A peptide concentration in the supernatant was measured with a plate reader (VARIO-SCAN, Thermo Fischer Scientific Inc.) based on a fluorescence intensity derived from tryptophan in a sequence (excitation wavelength: 280 nm; emission wavelength: 355 nm) through use of 50 μL of the supernatant. The amount of the peptide bound to the beads was determined by subtracting the peptide concentration in the supernatant from a total peptide concentration, and the adsorption isotherm thus obtained was subjected to curve fitting to a theoretical formula (Microsoft Excel, Microsoft Corporation), thereby determining a dissociation constant KD of the peptide to the hydroxyapatite beads.

Arg-gingipain (Rgp) [3] = assay: Binding affinity to second target (Rgp) by SPR (Biacore-T100); settings: immobilized Rgp, 10 mM HEPES (pH 7.4), 150 mM NaCl, 0.05% Tween, 0.2% DMSO, peptide 25-1,600 nM, read-out: Dissociation constant (KD)
Experimental: The peptide of Example 1-2 and an Rgp-binding peptide A (RRKRR: SEQ ID NO: 16) forming the Rgp binding site of the peptide were each measured for its binding affinity to Rgp by SPR using “Biacore-T100” (GE Healthcare). The measurement was performed according to a common method. Specifically, the measurement of the peptide of Example 1-2 was performed through bonding streptavidin (Extravidin SIGMA E2511) to a chip (CM5 sensor chip) by amine coupling, and then immobilizing Rgp biotinylated with a 20-fold molar ratio of an NHS-biotinylation reagent (EZ-Link™ Sulfo-NHS-SS-Biotin, Thermo Fischer Scientific Inc.). Meanwhile, the measurement of the Rgp-binding peptide A was performed through directly immobilizing Rgp on a CM5 sensor chip by amine coupling from the viewpoint of measurement sensitivity.
Next, the peptide stock solution (in DMSO) was diluted with a running buffer (10 mM HEPES (pH 7.4), 150 mM NaCl, 0.05% Tween, 0.2% DMSO) to prepare peptide solutions having final peptide concentrations of 25 nM, 100 nM, 400 nM, and 1,600 nM. Those peptide solutions having the four concentrations were used to provide sensorgrams indicating weight changes caused by binding between Rgp immobilized on the chip and the peptide. […]

[4] = mouse, in vivo
Experimental: Three kinds of fluorescein (FAM)-labeled peptides shown in Table 7 were purchased from Eurofins Genomics K.K. 1 mg of each of the peptides was separately dissolved in 4 mL of PBS to prepare an administration solution (0.25 mg/mL).
Eighteen Crl:CD1 (ICR) mice (male) (Jackson Laboratory Japan, Inc.) were subjected to 7 or more days of adaptation after their arrival and receipt, then divided by three per group into the six groups as in Table 8, and used in the following experiments. The administration solution (1 mg/4 mL/kg) was administered to the tail vein of a non-fasting mouse through use of a syringe equipped with an injection needle. A dose for each individual was calculated from a body weight measured on the day of the administration.
After the completion of the administration, about 0.1 mL of blood was collected from a jugular vein without anesthesia at the predetermined time points of collection shown in Table 8 through use of a heparin-treated syringe equipped with an injection needle. At the final time point of collection, whole blood was collected from a posterior aorta under isoflurane anesthesia. The collected blood was promptly transferred to a polypropylene tube and cooled on ice. The collected whole blood was centrifuged (about 10,000×g, 3 minutes, 4° C.), and the plasma sample was promptly dispensed and light-shielded in a sample storage container. The plasma samples were cryopreserved until measurement (control temperature: about −80° C.).
A freeze-thawed plasma sample (10 μL) was diluted 10-fold with PBS (90 μL), and measured for its fluorescence intensity with a plate reader (SPARK™ multi-detection mode microplate reader, Tecan Group Ltd.) (excitation wavelength: 495 nm; emission wavelength: 520 nm). […] The peptide concentrations in plasma thus obtained were logarithmically plotted against post-administration time, four time points including the final blood collection point were exponentially approximated (Microsoft Excel, Microsoft Corporation), and an elimination half-life was calculated from a slope of the straight line. […]

[5] = pH dependency of particle diameter of peptide assembly (dynamic light scattering); format: physicochemical; settings: 25° C.; for Average particle diameter, pH 6: 10 mM MES, 150 mM NaCl buffer (pH 6.0); for Average particle diameter, pH 7: dilution A (pH 6.0) diluted with 10 mM HEPES, 150 mM NaCl buffer (pH 7.4)
Experimental: 5 mg of each of the peptides of Examples 2-1 and 2-2 was dissolved in DMSO to provide a stock solution (50 mg/mL). To a 10 mM MES and 150 mM NaCl buffer (pH 6.0) under stirring with a micromixer (E-36, Taitec Corporation), 4 μL of the stock solution was dropped to be diluted 100-fold. Thus, a dilution A was obtained. The dilution A was vortexed and then left to stand still at room temperature overnight. 100 μL of the dilution A was used and diluted with 300 μL of the same MES buffer or a 10 mM HEPES and 150 mM NaCl buffer (pH 7.4), and stirred for 1 hour. Thus, a dilution B was obtained. 200 μL of each of the dilution A and the dilution B after having been left to stand still overnight was used as a measurement sample and measurement of particle diameter distribution was performed at 25° C. with Litesizer 500 (Anton Paar GmBH).

Arg-gingipain (Rgp) [6] = assay: SPR (Biacore T100); Rgp amine-coupled directly to CM5 chip; peptide as analyte at 25-1,600 nM
Arg-gingipain (Rgp) [7] = assay: SPR (Biacore T100); biotinylated Rgp captured on streptavidin-coupled CM5 chip; peptide as analyte at 25-1,600 nM; KD per peptide

## DSpSEEKW-WEWWEWW-RRK(Tfa)RR (DS[pS]EEKWWEWWEWWRRK(Tfa)RR-NH2; N-terminus assumed; SMILES N=C(N)NCCC[C@H](NC(=O)[C@H](CCCNC(=N)N)NC(=O)[C@H](CCCCNC(=O)C(F)(F)F)NC(=O)[C@H](CCCNC(=N)N)NC(=O)[C@H](CCCNC(=N)N)NC(=O)[C@H](Cc1c[nH]c2ccccc12)NC(=O)[C@H](Cc1c[nH]c2ccccc12)NC(=O)[C@H](CCC(=O)O)NC(=O)[C@H](Cc1c[nH]c2ccccc12)NC(=O)[C@H](Cc1c[nH]c2ccccc12)NC(=O)[C@H](CCC(=O)O)NC(=O)[C@H](Cc1c[nH]c2ccccc12)NC(=O)[C@H](Cc1c[nH]c2ccccc12)NC(=O)[C@H](CCCCN)NC(=O)[C@H](CCC(=O)O)NC(=O)[C@H](CCC(=O)O)NC(=O)[C@H](COP(=O)(O)O)NC(=O)[C@H](CO)NC(=O)[C@@H](N)CC(=O)O)C(N)=O) [Example 1-3]
[1]
  Average particle diameter: 350 nm

## DSpSEEKW-LLELLELL-KGKILRPR (DS[pS]EEKWLLELLELLKGKILRPR-NH2; N-terminus assumed; SMILES CC[C@H](C)[C@H](NC(=O)[C@H](CCCCN)NC(=O)CNC(=O)[C@H](CCCCN)NC(=O)[C@H](CC(C)C)NC(=O)[C@H](CC(C)C)NC(=O)[C@H](CCC(=O)O)NC(=O)[C@H](CC(C)C)NC(=O)[C@H](CC(C)C)NC(=O)[C@H](CCC(=O)O)NC(=O)[C@H](CC(C)C)NC(=O)[C@H](CC(C)C)NC(=O)[C@H](Cc1c[nH]c2ccccc12)NC(=O)[C@H](CCCCN)NC(=O)[C@H](CCC(=O)O)NC(=O)[C@H](CCC(=O)O)NC(=O)[C@H](COP(=O)(O)O)NC(=O)[C@H](CO)NC(=O)[C@@H](N)CC(=O)O)C(=O)N[C@@H](CC(C)C)C(=O)N[C@@H](CCCNC(=N)N)C(=O)N1CCC[C@H]1C(=O)N[C@@H](CCCNC(=N)N)C(N)=O) [Example 1-5]
[1]
  Average particle diameter: 5 nm
[2]
  Kd: < 40 nM

## DSpSEEKW-LLELLELL-RRKRR (DS[pS]EEKWLLELLELLRRKRR-NH2; N-terminus assumed; SMILES CC(C)C[C@H](NC(=O)[C@H](CC(C)C)NC(=O)[C@H](CCC(=O)O)NC(=O)[C@H](CC(C)C)NC(=O)[C@H](CC(C)C)NC(=O)[C@H](CCC(=O)O)NC(=O)[C@H](CC(C)C)NC(=O)[C@H](CC(C)C)NC(=O)[C@H](Cc1c[nH]c2ccccc12)NC(=O)[C@H](CCCCN)NC(=O)[C@H](CCC(=O)O)NC(=O)[C@H](CCC(=O)O)NC(=O)[C@H](COP(=O)(O)O)NC(=O)[C@H](CO)NC(=O)[C@@H](N)CC(=O)O)C(=O)N[C@@H](CCCNC(=N)N)C(=O)N[C@@H](CCCNC(=N)N)C(=O)N[C@@H](CCCCN)C(=O)N[C@@H](CCCNC(=N)N)C(=O)N[C@@H](CCCNC(=N)N)C(N)=O) [Example 1-2]
[1]
  Average particle diameter: 250 nm
Arg-gingipain (Rgp) [3]
  Kd: 1.3 nM
[2]
  Kd: 1400 nM

## 5(6)-FAM-GYSEWRKWEL ({5(6)‑FAM}-GYSEWRKWEL-NH2) [Comparative Example 1]
[4]
  Elimination half-life: 1.3 h

## KGKILRPR-AAEAAEAA (KGKILRPRAAEAAEAA-NH2) [1-7]
[1]
  Average particle diameter: 520 nm

## DSpSEEK-AAEAAEAA-RRK(Tfa)RR (DS[pS]EEKAAEAAEAARRK(Tfa)RR-NH2; N-terminus assumed; SMILES C[C@H](NC(=O)[C@H](C)NC(=O)[C@H](CCC(=O)O)NC(=O)[C@H](C)NC(=O)[C@H](C)NC(=O)[C@H](CCCCN)NC(=O)[C@H](CCC(=O)O)NC(=O)[C@H](CCC(=O)O)NC(=O)[C@H](COP(=O)(O)O)NC(=O)[C@H](CO)NC(=O)[C@@H](N)CC(=O)O)C(=O)N[C@@H](CCC(=O)O)C(=O)N[C@@H](C)C(=O)N[C@@H](C)C(=O)N[C@@H](CCCNC(=N)N)C(=O)N[C@@H](CCCNC(=N)N)C(=O)N[C@@H](CCCCNC(=O)C(F)(F)F)C(=O)N[C@@H](CCCNC(=N)N)C(=O)N[C@@H](CCCNC(=N)N)C(N)=O) [Example 1-4]
[1]
  Average particle diameter: 450 nm

## 5(6)-FAM-GYSEWRKWEL-LLLLLLGG-HWRGWV ({5(6)‑FAM}-GYSEWRKWELLLLLLLGGHWRGWV-NH2) [Example 3-1]
[4]
  Elimination half-life: 133 h

## KGKILRPR-FFFFFFFF (KGKILRPRFFFFFFFF-NH2) [1-4]
[1]
  Average particle diameter: 50 nm

## GRSHHKRK-LLELLELL-HRHHVQER (GRSHHKRKLLELLELLHRHHVQER; a peptide designed to have two hydrophilic regions and a hydrophobic region located therebetween) [Example 2-1]
[5]
  Average particle diameter, pH 6: 440 nm
  Average particle diameter, pH 7: 4 nm

## KGKILRPR-AAAAAAAA (KGKILRPRAAAAAAAA-NH2) [1-8]
[1]
  Average particle diameter: >1,000 nm

## KGKILRPR-LLELLELL (KGKILRPRLLELLELL-NH2) [Reference Example 1-5]
[1]
  Average particle diameter: 5 nm

## KGKILRPR-WWWWWWWW (KGKILRPRWWWWWWWW-NH2) [1-3]
[1]
  Average particle diameter: 920 nm

## KGKILRPR-WWEWWEWW (KGKILRPRWWEWWEWW-NH2) [1-6]
[1]
  Average particle diameter: 10 nm

## DSpSEEKW (DS[pS]EEKW) [HA-binding peptide A, reference compound]
[2]
  Kd: 710 nM

## 5(6)-FAM-GYSEWRKWEL-LLLLLL ({5(6)‑FAM}-GYSEWRKWELLLLLLL-NH2) [Comparative Example 2]
[4]
  Elimination half-life: 16.7 h

## KGKILRPR-YYYYYYYY (KGKILRPRYYYYYYYY-NH2) [1-2]
[1]
  Average particle diameter: 210 nm

## KGKILRPR-LLLLLLLL (KGKILRPRLLLLLLLL-NH2) [1-1]
[1]
  Average particle diameter: 36 nm

## RRKRR [Rgp-binding peptide A, reference compound]
Arg-gingipain (Rgp) [3]
  Kd: 400 nM

## HHIRRKRQ-WWEWWEWW-HGDHHKSN (HHIRRKRQWWEWWEWWHGDHHKSN; a peptide designed to have two hydrophilic regions and a hydrophobic region located therebetween) [Example 2-2]
[5]
  Average particle diameter, pH 6: 4,400 nm
  Average particle diameter, pH 7: 210 nm

B1: Rgp-binding peptide A (RRKRR) (peptide)
peptide: RRKRR
Arg-gingipain (Rgp) [6]
  Kd: 400 nM

B2: peptide of Example 1-2 (DSpSEEKW-LLELLELL-RRKRR) (peptide)
peptide: DSSEEKWLLELLELLRRKRR
modifications: pS = phosphorylated serine (third residue of DSpSEEKW); C-terminal carboxyl group amidated
Arg-gingipain (Rgp) [7]
  Kd: 1.3 nM
